Assay [1] has as its target rsH4NBv1 monomeric HA1 head. Nature of the assay: BLI, Fab on Ni-NTA sensor, monomeric HA head in solution. Background: BLI is a label-free optical method that tracks binding on a fibre tip over time.
Assay [2] deals with rsH14WIv2 monomeric HA1 head. Described as above.
Assay [3] has as its target H14N6 A/mallard/Wisconsin/10OS3941/2010 hemagglutinin, monomeric HA1 head (Influenza A virus H14N6 A/mallard/Wisconsin/10OS3941/2010). Described as above.
Assay [4] deals with rsH4NBv3 monomeric HA1 head. The assay is described as above.
Assay [5] concerns the target H4N6 A/America black duck/New Brunswick/00464/2010 hemagglutinin, monomeric HA1 head (Influenza A virus H4N6 A/America black duck/New Brunswick/00464/2010). The assay is described as above.
The target in assay [6] is rsH14WIv1 monomeric HA1 head. The assay is described as above.
Assay [7] deals with H1 A/Solomon Islands/3/2006 hemagglutinin, monomeric HA1 head (Influenza A virus H1N1 A/Solomon Islands/3/2006) (UniProt B4URD6). The assay is described as above.
In assay [8] the target is rsH14WIv2 monomeric HA1 head. Nature of the assay: BLI, Fab and monomeric HA head.
Assay [9] has as its target rsH14WIv1 monomeric HA1 head. The experiment in a line: BLI, Fab and monomeric HA head.

What is called Kd is the equilibrium constant for the complex coming apart. Higher therefore signals weaker binding. C05 Fab: the Kd in assay [1] was more than 100 µM; in assay [2], 0.065 µM; in assay [3] it was more than 100 µM; in [4], 0.34 µM; in assay [5], more than 100 µM; in assay [6], 1.4 µM. The substance also registered a Kd in [7] of 1.1 µM. The fold tighter binding than wildtype H1 SI-06 in assay [8] was more than 10 fold. In [9], this substance showed a fold KD greater than wildtype H1 SI-06 of 1.3 fold.
With CH67 Fab, the Kd in assay [1] is more than 100 µM; in assay [2] it was 0.31 µM; in assay [3], more than 100 µM; in assay [4], 1.6 µM; in assay [5], more than 100 µM; in assay [6] it was 9.5 µM. In [7], this substance came in with a Kd of 0.57 µM. Also, the fold KD greater than wildtype H1 SI-06 in assay [9] turned out to be 17 fold.

The record behind these values is patent US20200231630A1.
